The chains are these.
B1: CD38-M1-G2 (bispecific antibody, human IgG1, kappa)
chain: QVQLVESGGGVVQPGRSLRLSCAASGFTFSTYAMNWVRQAPGKGLEWVARIRSKYNNYATYYADSVKDRFTISRDDSKNTLYLQMNSLRAEDTAVYYCARHGNFGNSYVSWFAYWGQGTLVTVSSGGGGSGGGGSGGGGSQTVVTQEPSLTVSPGGTVTLTCRSSTGAVTTSNYANWVQQKPGQAPRGLIGGTNKRAPGVPARFSGSLLGGKAALTLSGVQPEDEAEYYCALWYSNLWVFGGGTKVEIKGRGRGSDKTHTCPPCPAPPVAGPSVFLFPPKPKDTLMISRTPEVTCVVVDVSHEDPEVQFNWYVDGVEVHNAKTKPREEQFNSTFRVVSVLTVVHQDWLNGKEYKCKVSNKGLPAPIEKTISKTKGQPREPQVCTLPPSRDELTKNQVSLSCAVKGFYPSDIAVEWESNGQPENNYKTTPPVLDSDGSFFLVSKLTVDKSRWQQGNVFSCSVMHEALHNHYTQKSLSLSPGK
heavy: EVQLLESGGGLVQPGGSLRLSCAVSGFTFNSFAMSWVRQAPGKGLEWVSAISGSGGGTYYADSVKGRFTISRDNSKNTLYLQMNSLRAEDTAVYFCAKDKILWFGEPVFDYWGQGTLVTVSSASTKGPSVFPLAPSSKSTSGGTAALGCLVKDYFPEPVTVSWNSGALTSGVHTFPAVLQSSGLYSLSSVVTVPSSSLGTQTYICNVNHKPSNTKVDKKVEPKSCDKTHTCPPCPAPPVAGPSVFLFPPKPKDTLMISRTPEVTCVVVDVSHEDPEVQFNWYVDGVEVHNAKTKPREEQFNSTFRVVSVLTVVHQDWLNGKEYKCKVSNKGLPAPIEKTISKTKGQPREPQVYTLPPCRDELTKNQVSLWCLVKGFYPSDIAVEWESNGQPENNYKTTPPVLDSDGSFFLYSKLTVDKSRWQQGNVFSCSVMHEALHNHYTQKSLSLSPGK
light: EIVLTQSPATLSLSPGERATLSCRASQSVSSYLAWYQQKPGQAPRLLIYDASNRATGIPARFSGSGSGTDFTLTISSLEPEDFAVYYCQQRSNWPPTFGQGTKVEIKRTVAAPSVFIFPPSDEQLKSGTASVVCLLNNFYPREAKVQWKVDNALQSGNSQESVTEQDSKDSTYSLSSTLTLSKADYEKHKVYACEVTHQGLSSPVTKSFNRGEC
notes: structure 1; CD38 x CD3; CH2 G2CH2
B2: CD38-M1-G2-1 (bispecific antibody)
chain: not shown
heavy: B1 heavy
light: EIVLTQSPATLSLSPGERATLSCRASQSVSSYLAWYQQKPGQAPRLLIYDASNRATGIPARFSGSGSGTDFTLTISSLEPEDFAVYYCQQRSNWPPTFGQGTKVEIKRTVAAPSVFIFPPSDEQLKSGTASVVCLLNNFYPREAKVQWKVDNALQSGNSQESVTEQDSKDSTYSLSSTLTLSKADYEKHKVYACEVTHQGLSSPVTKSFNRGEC
notes: structure 1; CD38 x CD3 (I2C); CH2 G2CH2
B3: CD38-M1-DG2 (bispecific antibody)
chain: not shown
heavy: B1 heavy with D269A
light: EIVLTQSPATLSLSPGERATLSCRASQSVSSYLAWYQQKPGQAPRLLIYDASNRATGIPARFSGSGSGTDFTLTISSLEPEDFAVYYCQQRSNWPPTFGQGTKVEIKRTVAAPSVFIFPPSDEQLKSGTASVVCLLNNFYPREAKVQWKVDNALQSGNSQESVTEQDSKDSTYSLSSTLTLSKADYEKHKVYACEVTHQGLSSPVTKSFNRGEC
notes: structure 1; CD38 x CD3 (I2C); CH2 DG2CH2
B4: CD38-M1-GG2 (bispecific antibody)
chain: not shown
heavy: B1 heavy with C234G
light: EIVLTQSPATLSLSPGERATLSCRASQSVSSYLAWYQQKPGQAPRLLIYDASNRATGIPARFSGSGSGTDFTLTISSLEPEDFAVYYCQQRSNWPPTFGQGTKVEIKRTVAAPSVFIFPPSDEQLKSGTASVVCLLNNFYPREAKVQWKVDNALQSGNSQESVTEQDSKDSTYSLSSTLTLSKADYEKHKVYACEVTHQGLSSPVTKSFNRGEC
notes: structure 1; CD38 x CD3 (I2C); CH2 GG2CH2
B5: CD38-M1-DG2D (bispecific antibody)
chain: not shown
heavy: B1 heavy with D269A, D274A
light: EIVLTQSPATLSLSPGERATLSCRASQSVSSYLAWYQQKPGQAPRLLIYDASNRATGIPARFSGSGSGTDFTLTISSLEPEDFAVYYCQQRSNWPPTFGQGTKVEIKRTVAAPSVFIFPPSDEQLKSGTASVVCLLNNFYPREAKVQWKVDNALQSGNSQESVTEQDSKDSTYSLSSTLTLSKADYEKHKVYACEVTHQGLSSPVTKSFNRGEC
notes: structure 1; CD38 x CD3 (I2C); CH2 DG2DCH2
B6: CD38-M1-SG2 (bispecific antibody, human IgG1, kappa)
chain: B1 chain with C264S
heavy: B1 heavy with C234S
light: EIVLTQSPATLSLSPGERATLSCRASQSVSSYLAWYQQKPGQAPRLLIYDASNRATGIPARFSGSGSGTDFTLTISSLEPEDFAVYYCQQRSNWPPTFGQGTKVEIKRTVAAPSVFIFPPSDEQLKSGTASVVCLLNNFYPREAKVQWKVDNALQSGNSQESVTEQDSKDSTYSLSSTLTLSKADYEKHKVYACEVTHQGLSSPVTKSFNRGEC
notes: structure 1; CD38 x CD3; CH2 SG2CH2
B7: CD38-M1-AG2 (bispecific antibody)
chain: not shown
heavy: B1 heavy with C234A
light: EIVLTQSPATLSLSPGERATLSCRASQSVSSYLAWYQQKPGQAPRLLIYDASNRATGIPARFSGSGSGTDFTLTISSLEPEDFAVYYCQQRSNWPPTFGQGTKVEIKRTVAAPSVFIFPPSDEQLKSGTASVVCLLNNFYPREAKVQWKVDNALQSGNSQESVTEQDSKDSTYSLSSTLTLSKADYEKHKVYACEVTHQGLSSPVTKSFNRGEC
notes: structure 1; CD38 x CD3 (I2C); CH2 AG2CH2
B8: CD38-M1-G2D (bispecific antibody)
chain: not shown
heavy: B1 heavy with D274A
light: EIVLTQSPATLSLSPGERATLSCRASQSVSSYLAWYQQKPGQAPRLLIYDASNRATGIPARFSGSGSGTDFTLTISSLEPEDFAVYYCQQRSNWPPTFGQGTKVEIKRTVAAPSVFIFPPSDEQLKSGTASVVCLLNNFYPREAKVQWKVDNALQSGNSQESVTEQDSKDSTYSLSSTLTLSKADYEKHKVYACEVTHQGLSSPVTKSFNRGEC
notes: structure 1; CD38 x CD3 (I2C); CH2 G2DCH2
B9: CD38-M1-SG2-3 (bispecific antibody)
chain: not shown
heavy: B1 heavy with C234S
light: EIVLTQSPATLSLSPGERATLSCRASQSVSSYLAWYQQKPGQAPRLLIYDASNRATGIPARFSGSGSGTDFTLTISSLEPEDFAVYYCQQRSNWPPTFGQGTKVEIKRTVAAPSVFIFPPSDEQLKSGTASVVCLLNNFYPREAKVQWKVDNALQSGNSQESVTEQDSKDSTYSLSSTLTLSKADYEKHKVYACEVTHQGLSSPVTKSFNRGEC
notes: structure 1; CD38 x CD3 (I2C); CH2 SG2CH2
B10: CD38-M1-PG2 (bispecific antibody)
chain: not shown
heavy: B1 heavy with C234P
light: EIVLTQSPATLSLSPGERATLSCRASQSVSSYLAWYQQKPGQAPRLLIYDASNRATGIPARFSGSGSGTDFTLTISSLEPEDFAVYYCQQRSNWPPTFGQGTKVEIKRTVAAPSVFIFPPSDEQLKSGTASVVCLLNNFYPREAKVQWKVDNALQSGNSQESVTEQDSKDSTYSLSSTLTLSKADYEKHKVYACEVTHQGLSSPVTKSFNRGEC
notes: structure 1; CD38 x CD3 (I2C); CH2 PG2CH2
B11: CD38-M1-FES (bispecific antibody, human IgG1, kappa)
chain: QVQLVESGGGVVQPGRSLRLSCAASGFTFSTYAMNWVRQAPGKGLEWVARIRSKYNNYATYYADSVKDRFTISRDDSKNTLYLQMNSLRAEDTAVYYCARHGNFGNSYVSWFAYWGQGTLVTVSSGGGGSGGGGSGGGGSQTVVTQEPSLTVSPGGTVTLTCRSSTGAVTTSNYANWVQQKPGQAPRGLIGGTNKRAPGVPARFSGSLLGGKAALTLSGVQPEDEAEYYCALWYSNLWVFGGGTKVEIKGGGGSDKTHTCPPCPAPEFEGGPSVFLFPPKPKDTLMISRTPEVTCVVVDVSHEDPEVKFNWYVDGVEVHNAKTKPREEQYNSTYRVVSVLTVLHQDWLNGKEYKCKVSNKALPASIEKTISKAKGQPREPQVCTLPPSRDELTKNQVSLSCAVKGFYPSDIAVEWESNGQPENNYKTTPPVLDSDGSFFLVSKLTVDKSRWQQGNVFSCSVMHEALHNHYTQKSLSLSPGK
heavy: EVQLLESGGGLVQPGGSLRLSCAVSGFTFNSFAMSWVRQAPGKGLEWVSAISGSGGGTYYADSVKGRFTISRDNSKNTLYLQMNSLRAEDTAVYFCAKDKILWFGEPVFDYWGQGTLVTVSSASTKGPSVFPLAPSSKSTSGGTAALGCLVKDYFPEPVTVSWNSGALTSGVHTFPAVLQSSGLYSLSSVVTVPSSSLGTQTYICNVNHKPSNTKVDKKVEPKSCDKTHTCPPCPAPEFEGGPSVFLFPPKPKDTLMISRTPEVTCVVVDVSHEDPEVKFNWYVDGVEVHNAKTKPREEQYNSTYRVVSVLTVLHQDWLNGKEYKCKVSNKALPASIEKTISKAKGQPREPQVYTLPPCRDELTKNQVSLWCLVKGFYPSDIAVEWESNGQPENNYKTTPPVLDSDGSFFLYSKLTVDKSRWQQGNVFSCSVMHEALHNHYTQKSLSLSPGK
light: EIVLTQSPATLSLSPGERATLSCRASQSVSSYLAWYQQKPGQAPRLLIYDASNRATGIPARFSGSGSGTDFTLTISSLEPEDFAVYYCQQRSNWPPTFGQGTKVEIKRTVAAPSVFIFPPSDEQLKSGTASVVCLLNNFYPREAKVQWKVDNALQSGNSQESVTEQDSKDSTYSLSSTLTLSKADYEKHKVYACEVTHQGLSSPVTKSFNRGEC
notes: structure 1; CD38 x CD3; CH2 FES
B12: CD38-M1-FES-1 (bispecific antibody)
chain: not shown
heavy: B11 heavy
light: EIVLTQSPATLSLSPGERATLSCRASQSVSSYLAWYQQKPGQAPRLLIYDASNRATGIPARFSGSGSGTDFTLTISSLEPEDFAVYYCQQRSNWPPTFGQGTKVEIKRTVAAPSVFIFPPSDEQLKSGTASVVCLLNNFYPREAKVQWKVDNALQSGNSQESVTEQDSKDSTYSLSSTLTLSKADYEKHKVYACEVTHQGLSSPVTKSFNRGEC
notes: structure 1; CD38 x CD3 (I2C); CH2 FES
B13: M1IC-WT-1 (bispecific antibody, human IgG1, kappa)
chain: not shown
heavy: not shown
light: DVVMTQTPLSLPVSLGDQASISCRSSQSLVHSNGNTYLRWYLQKPGQSPKVLIYKVSNRFSGVPDRFSGSGSGTDFTLKISRVEAEDLGVYFCSQSTHVPWTFGGGTKLEIKRTVAAPSVFIFPPSDEQLKSGTASVVCLLNNFYPREAKVQWKVDNALQSGNSQESVTEQDSKDSTYSLSSTLTLSKADYEKHKVYACEVTHQGLSSPVTKSFNRGEC
notes: structure 1 isotype control; CH2 WT
B14: M1IC-NQ (bispecific antibody, human IgG1, kappa, N297Q)
chain: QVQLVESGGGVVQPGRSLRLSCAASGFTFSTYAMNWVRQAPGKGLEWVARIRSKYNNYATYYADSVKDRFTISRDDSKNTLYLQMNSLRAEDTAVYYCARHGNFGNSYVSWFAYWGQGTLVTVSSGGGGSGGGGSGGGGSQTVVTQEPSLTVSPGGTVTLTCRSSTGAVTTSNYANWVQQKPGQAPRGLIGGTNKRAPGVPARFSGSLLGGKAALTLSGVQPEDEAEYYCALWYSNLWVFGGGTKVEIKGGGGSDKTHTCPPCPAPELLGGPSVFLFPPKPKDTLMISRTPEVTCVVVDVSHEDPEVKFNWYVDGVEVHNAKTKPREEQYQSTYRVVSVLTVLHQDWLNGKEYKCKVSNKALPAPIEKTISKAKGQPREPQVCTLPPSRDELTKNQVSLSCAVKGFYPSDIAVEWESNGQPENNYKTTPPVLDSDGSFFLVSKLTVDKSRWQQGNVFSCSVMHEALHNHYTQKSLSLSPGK
heavy: EVKLDETGGGLVQPGRPMKLSCVASGFTFSDYWMNWVRQSPEKGLEWVAQIRNKPYNYETYYSDSVKGRFTISRDDSKSSVYLQMNNLRVEDMGIYYCTGSYYGMDYWGQGTSVTVSSASTKGPSVFPLAPSSKSTSGGTAALGCLVKDYFPEPVTVSWNSGALTSGVHTFPAVLQSSGLYSLSSVVTVPSSSLGTQTYICNVNHKPSNTKVDKKVEPKSCDKTHTCPPCPAPELLGGPSVFLFPPKPKDTLMISRTPEVTCVVVDVSHEDPEVKFNWYVDGVEVHNAKTKPREEQYQSTYRVVSVLTVLHQDWLNGKEYKCKVSNKALPAPIEKTISKAKGQPREPQVYTLPPCRDELTKNQVSLWCLVKGFYPSDIAVEWESNGQPENNYKTTPPVLDSDGSFFLYSKLTVDKSRWQQGNVFSCSVMHEALHNHYTQKSLSLSPGK
light: B13 light
notes: structure 1 isotype control; CH2 N297Q
B15: M1IC-AAG-1 (bispecific antibody, human IgG1, kappa, L234A L235A)
chain: B11 chain with F268A, E269A, P363G, S365P
heavy: not shown
light: B13 light
notes: structure 1 isotype control; CH2 AAG
B16: M1IC-FES-1 (bispecific antibody, human IgG1, kappa)
chain: B11 chain
heavy: B14 heavy with L235F, L236E, Q298N, P332S
light: B13 light
notes: structure 1 isotype control; CH2 FES; also called MlIC-FES-1

Where a chain is given by its changes, count along the chain named. Names and notes keep the numbering of the source.

The target of one experiment is T1, Monkey CD3 (monkey).
T1 construct: whole, on cells; also called CD3 of monkey CD3 positive T cells
Briefly: flow cytometry, monkey T cells.
For B1, the EC50 (in general, the concentration that produces a half-maximal response) stood at 142 nM.
Turning to B2, it took 12.6 nM to reach a half-maximal effect (EC50).
B3: the EC50 was 11 nM.
Regarding B4, it took 10.4 nM to reach a half-maximal effect (EC50).
B5 came in with an EC50 of 7.05 nM.
On to B6, for which the EC50 came out at 159 nM.
Take B7: it took 10.2 nM to reach a half-maximal effect (EC50).
Still for that read-out and setting: for B8 the value was 10.1 nM; for B9, 7.59 nM; for B10, 11.5 nM.
Same read-out and setting: under B11 stands 291 nM; under B12, 9.18 nM; under B13, 174 nM.
The same measure, in the same setting: under B14 stands 378 nM; under B15, 205 nM.
B16 had an EC50 of 295 nM.

A further experiment deals with T2, Human CD3ε (human, UniProt P07766 23-126).
T2 construct: CD3 on T cells isolated from human whole blood
Briefly: flow cytometry, human T cells. The source says: 1) Cell preparation: T cells isolated from CD3-positive human whole blood were used for a CD3 end affinity detection of multifunctional antibody molecule; positive tumor cells of corresponding antigen were used for detecting affinity of tumor antigen; for example, CD38-positive MM. 1S cells (purchased from the Cell Resource Center of Shanghai Institutes for Biological Sciences, Chinese Academy of Sciences) or RPMI 8226 cells (purchased from the Cell Resource Center of Shanghai Institutes for Biological Sciences, Chinese Academy of Sciences) were used for CD38 antigen detection, and PD-L1 positive H358 cells (purchased from the Cell Resource Center of Shanghai Institutes for Biological Sciences, Chinese Academy of Sciences) were used for PD-L1 antigen detection, and so on. The cells were resuspended with 1% FBS-PBS, adjusted to a density of 4×10⁶/ml, and 50 μl of cells were taken from each well, and then plated at 2×10⁵ per well. Cell plating was operated on ice
2) Addition of the antibody: according to the experimental design, the antibody was diluted gradually, and dilution of antibody was operated on ice. For example, the initial concentration of antibody for dilution was 3000 nM, and the antibody was diluted by 3 times with 11 concentration gradients. The diluted antibody was added to a cell well at 50 μl per well, mixed well, and shaked and incubated at 4° C. 1100 rpm/min for 2 h; after washing, the cells were resuspend in 1% FBS-PBS, and a diluted secondary antibody PE anti-human IgG FC (Biolegend, 409304) was added with a final concentration of 8 ug/ml and a volume of 50 μl/well. At the same time, a well only added with cells and secondary antibody was set as a control, the components were mixed well, and incubated under shaking at 1100 rpm/min at 4° C. for 1 h;
5) Data analysis: the data was analyzed by a flow analysis software FlowJo 7.6 thereby obtaining an average fluorescence intensity of the specific antibody concentration, plotted by a Graphpad Prism 5 with the antibody concentration (nM) as an abscissa and the average fluorescence intensity as an ordinate; the EC50 value was calculated by the method of One site—Specific binding, and the EC50 value indicated the cell affinity of the antibody to the corresponding target antigen.
Background: In flow cytometry, cells or beads pass a laser one at a time.
B13 returned an EC50 of 153 nM.
In the case of B14, the EC50 worked out at 194 nM.
Same read-out and setting: under B15 stands 152 nM; under B16, 170 nM.

Values taken from patent US20220098307A1 (WUHAN YZY BIOPHARMA, published 2022).
